According to patent US20110038881A1, “PROGNOSTIC ASSAY FOR DETERMINING T CELL RESPONSE TO HLA ANTIGENS AND USE THEREOF IN FIELD OF TISSUE TRANSPLANTATION” (priority 2007, published 2011):

B1: p51* (peptide)
chain: LTLRWEPSSQPTIPI
B2: p16* (peptide)
chain: RGYYNQSEAGSHTVQ
B3: p4 (peptide)
chain: PRFIAVGYVDDTQFV
B4: p17* (peptide)
chain: HTVQRMYGCDVGSDW
B5: p43 (peptide)
chain: LTWQRDGEDQTQDTE
B6: p38 (peptide)
chain: THMTHHAVSDHEATL
B7: p37 (peptide)
chain: ETLQRTDAPKTHMTH
B8: p41 (peptide)
chain: LSFYPAEITLTWQRD
B9: p32 (peptide)
chain: EQLRAYLEGTCVEWL
B10: p48 (peptide)
chain: EQRYTCHVQHEGLPKP
B11: p31 (peptide)
chain: AHVAEQLRAYLEGTC
B12: p45* (peptide)
chain: GTFQKWAAVVVPSGQ
B13: p47 (peptide)
chain: AAVVVPSGQEQRYTC
B14: p49 (peptide)
chain: EGLPKPLTLRWEPSS

What follows are binders tested against HLA-DRB1*0401 (human) (assay: competition binding). Conditions: modification not given.
Work on B1 yielded an IC50 of 0.497 µM.
Work on B2 yielded an IC50 of 0.494 µM.
B3 showed an IC50 of over 100 µM.
B4 gave an IC50 of 2.12 µM.
In the case of B5, the IC50 is reported as over 100 µM.
Binder B6 has an IC50 of over 100 µM.
With B7 the IC50 was 60 µM.
In the case of B8, the IC50 is reported as 0.917 µM.
B9 showed an IC50 of 1.73 µM.
Binder B10 has an IC50 of 57.4 µM.
B11 showed an IC50 of over 100 µM.
Binder B12 has an IC50 of 0.099 µM.
With B13 the IC50 was over 100 µM.
Work on B14 yielded an IC50 of 0.497 µM.

The binders below were run against HLA-DRB1*0101 (human) (assay: competition binding). Conditions: modification not given.
B1 was tested, and the IC50 was 0.525 µM.
Work on B3 yielded an IC50 of 0.748 µM.
B4 was tested, and the IC50 was 0.035 µM.
Binder B5 has an IC50 of over 100 µM.
Binder B6 has an IC50 of 8 µM.
Work on B7 yielded an IC50 of 2 µM.
For B8, the IC50 was 0.05 µM.
B9 was tested, and the IC50 was 0.063 µM.
B10 was tested, and the IC50 was 1.92 µM.
B11 gave an IC50 of 0.629 µM.
B12 gave an IC50 of 0.004 µM.
B13 showed an IC50 of 2.24 µM.
With B14 the IC50 was 0.497 µM.

The binders below were run against HLA-DRB1*1301 (human) (assay: competition binding). Conditions: modification not given.
Binder B1 has an IC50 of over 100 µM.
Work on B2 yielded an IC50 of over 100 µM.
For B3, the IC50 was over 100 µM.
With B4 the IC50 was over 100 µM.
Binder B5 has an IC50 of over 100 µM.
B6 gave an IC50 of over 100 µM.
Binder B7 has an IC50 of over 100 µM.
In the case of B8, the IC50 is reported as over 100 µM.
Binder B9 has an IC50 of over 100 µM.
Work on B10 yielded an IC50 of over 100 µM.
With B11 the IC50 was 8.06 µM.
B12 was tested, and the IC50 was over 100 µM.
B13 was tested, and the IC50 was 7.48 µM.
Work on B14 yielded an IC50 of over 100 µM.

The binders below were run against HLA-DRB4*0101 (human) (assay: competition binding). Conditions: modification not given.
Work on B1 yielded an IC50 of 26 µM.
With B2 the IC50 was over 100 µM.
With B3 the IC50 was 45.7 µM.
B14 gave an IC50 of 33.9 µM.

These binders were tested against HLA-DRB1*0701 (human) (assay: competition binding). Conditions: modification not given.
For B1, the IC50 was 0.072 µM.
In the case of B2, the IC50 is reported as 0.13 µM.
Work on B3 yielded an IC50 of 0.85 µM.
Work on B4 yielded an IC50 of 1.59 µM.
In the case of B5, the IC50 is reported as over 100 µM.
In the case of B6, the IC50 is reported as 53.7 µM.
In the case of B7, the IC50 is reported as 3.13 µM.
B8 gave an IC50 of over 100 µM.
B9 gave an IC50 of 0.149 µM.
With B10 the IC50 was 29.5 µM.
For B11, the IC50 was over 100 µM.
B13 showed an IC50 of 42.2 µM.
In the case of B14, the IC50 is reported as 71 µM.

The binders below were run against HLA-DRB1*1101 (human) (assay: competition binding). Conditions: modification not given.
Binder B1 has an IC50 of over 100 µM.
With B2 the IC50 was 3.18 µM.
B3 gave an IC50 of 5.48 µM.
Work on B4 yielded an IC50 of 6.48 µM.
B5 was tested, and the IC50 was over 100 µM.
In the case of B6, the IC50 is reported as over 100 µM.
Binder B7 has an IC50 of over 100 µM.
For B8, the IC50 was 2.35 µM.
With B9 the IC50 was 0.424 µM.
Binder B10 has an IC50 of 0.693 µM.
With B11 the IC50 was 3.34 µM.
B12 gave an IC50 of 0.34 µM.
With B13 the IC50 was 68.9 µM.
B14 gave an IC50 of 2.06 µM.

Each binder was assayed against HLA-DRB1*0301 (human) (assay: competition binding). Conditions: modification not given.
B1 was tested, and the IC50 was over 100 µM.
In the case of B2, the IC50 is reported as over 100 µM.
In the case of B3, the IC50 is reported as 12 µM.
With B4 the IC50 was 5.61 µM.
B5 gave an IC50 of 97.5 µM.
Binder B6 has an IC50 of over 100 µM.
With B7 the IC50 was over 100 µM.
B8 gave an IC50 of over 100 µM.
For B9, the IC50 was 1.84 µM.
B10 gave an IC50 of over 100 µM.
For B11, the IC50 was over 100 µM.
For B12, the IC50 was over 100 µM.
With B13 the IC50 was 0.98 µM.
B14 showed an IC50 of over 100 µM.

What follows are binders tested against HLA-DRB3*0101 (human) (assay: competition binding). Conditions: modification not given.
B1 gave an IC50 of 29 µM.
B2 was tested, and the IC50 was over 100 µM.
Binder B3 has an IC50 of 0.196 µM.
For B4, the IC50 was 0.529 µM.
With B7 the IC50 was 27.6 µM.
B9 was tested, and the IC50 was 1.09 µM.
B10 gave an IC50 of 20.5 µM.
Binder B12 has an IC50 of 0.045 µM.
With B13 the IC50 was 1.53 µM.
In the case of B14, the IC50 is reported as 4.69 µM.

The binders below were run against HLA-DRB1*1501 (human) (assay: competition binding). Conditions: modification not given.
For B1, the IC50 was 2.44 µM.
B2 was tested, and the IC50 was over 100 µM.
Binder B4 has an IC50 of 2.83 µM.
B5 was tested, and the IC50 was over 100 µM.
B6 was tested, and the IC50 was over 100 µM.
With B7 the IC50 was over 100 µM.
B8 showed an IC50 of over 100 µM.
With B9 the IC50 was 0.267 µM.
B10 was tested, and the IC50 was over 100 µM.
With B11 the IC50 was 0.026 µM.
B12 showed an IC50 of 0.474 µM.
B13 showed an IC50 of over 100 µM.
Binder B14 has an IC50 of 50.2 µM.

The binders below were run against HLA-DRB5*0101 (human) (assay: competition binding). Conditions: modification not given.
B2 was tested, and the IC50 was 0.175 µM.
With B3 the IC50 was 0.755 µM.
B4 showed an IC50 of 12 µM.
Binder B5 has an IC50 of 4.1 µM.
